Reference: paper PMC10706726

Target: cLUC-LcMYB111 (litchi)

Q: LcHY5-nLUC (natural protein) was tested. Which dual-luciferase reporter (LUC/REN): activation of proLcFLS-A when LcMYB111 was co-infiltrated with LcHY5 (untagged effectors) did it give?
A: 18.8 fold

Q: What about the dual-luciferase reporter (LUC/REN): activation of proLcFLS-B when LcMYB111 was co-infiltrated with LcHY5 (untagged effectors) of the same substance?
A: 5.78 fold
